We go through five molecules from PMC8565331, “The RNA chaperone StpA enables fast RNA refolding by destabilization of mutually exclusive base pairs within competing secondary structure elements”.

The target of data set [1] is T1, StpA-CTD (Escherichia coli, UniProt P0ACG1 90-134).
T1 chain: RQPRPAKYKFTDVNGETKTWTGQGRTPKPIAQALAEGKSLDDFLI
Description: ITC; 25 C; n=1.74; 50 mM BisTris, 25 mM NaCl, pH 6.4; ITC at 5 and 25 C (40 uM RNA in cell, StpA-CTD 400/800/920 uM injected); NMR with 10% D2O, titration at 25 C. The settings on record: protein: recombinant; tags: none (His6-SUMOstar removed by SUMO protease); chain copies: 2; hairpin (3'-fold), 1 nt 5' overhang.

The target of data set [2] is T1, StpA-CTD. Description: ITC; 5 C; n=1.78; 50 mM BisTris, 25 mM NaCl, pH 6.4; ITC at 5 and 25 C (40 uM RNA in cell, StpA-CTD 400/800/920 uM injected); NMR with 10% D2O, titration at 25 C. The following applies: protein: recombinant; tags: none (His6-SUMOstar removed by SUMO protease); chain copies: 2; hairpin (3'-fold), 1 nt 5' overhang. A general note: Isothermal titration calorimetry measures the heat released or taken up as one component is titrated into another.

In data set [3] the target is T1, StpA-CTD. The data set is described as follows: ITC; 25 C; n=1.93; 50 mM BisTris, 25 mM NaCl, pH 6.4; ITC at 5 and 25 C (40 uM RNA in cell, StpA-CTD 400/800/920 uM injected); NMR with 10% D2O, titration at 25 C. The settings on record: protein: recombinant; tags: none (His6-SUMOstar removed by SUMO protease); chain copies: 2.
For data set [4], the target named is T1, StpA-CTD. Description: ITC; 5 C; n=1.84; 50 mM BisTris, 25 mM NaCl, pH 6.4; ITC at 5 and 25 C (40 uM RNA in cell, StpA-CTD 400/800/920 uM injected); NMR with 10% D2O, titration at 25 C. The following applies: protein: recombinant; tags: none (His6-SUMOstar removed by SUMO protease); chain copies: 2.
The target of data set [5] is T1, StpA-CTD. The data set is described as follows: ITC; 5 C; n=1.93; 50 mM BisTris, 25 mM NaCl, pH 6.4; ITC at 5 and 25 C (40 uM RNA in cell, StpA-CTD 400/800/920 uM injected); NMR with 10% D2O, titration at 25 C. The settings on record: protein: recombinant; tags: none (His6-SUMOstar removed by SUMO protease); chain copies: 2; hairpin, locked 5'-fold.
The target in data set [6] is T1, StpA-CTD. The data set is described as follows: ITC; 25 C; n=1.80; 50 mM BisTris, 25 mM NaCl, pH 6.4; ITC at 5 and 25 C (40 uM RNA in cell, StpA-CTD 400/800/920 uM injected); NMR with 10% D2O, titration at 25 C. The following applies: protein: recombinant; tags: none (His6-SUMOstar removed by SUMO protease); chain copies: 2; hairpin, locked 5'-fold.
Data set [7] concerns the target T1, StpA-CTD. Description: ITC; 25 C; n=1.69; 50 mM BisTris, 25 mM NaCl, pH 6.4; ITC at 5 and 25 C (40 uM RNA in cell, StpA-CTD 400/800/920 uM injected); NMR with 10% D2O, titration at 25 C. The following applies: protein: recombinant; tags: none (His6-SUMOstar removed by SUMO protease); chain copies: 2; hairpin (5'-fold).
Data set [8] deals with T1, StpA-CTD. The data set is described as follows: ITC; 5 C; n=1.74; 50 mM BisTris, 25 mM NaCl, pH 6.4; ITC at 5 and 25 C (40 uM RNA in cell, StpA-CTD 400/800/920 uM injected); NMR with 10% D2O, titration at 25 C. The settings on record: protein: recombinant; tags: none (His6-SUMOstar removed by SUMO protease); chain copies: 2; hairpin (5'-fold).
The target in data set [9] is T1, StpA-CTD. Description: ITC; 5 C; n=2.21; 50 mM BisTris, 25 mM NaCl, pH 6.4; ITC at 5 and 25 C (40 uM RNA in cell, StpA-CTD 400/800/920 uM injected); NMR with 10% D2O, titration at 25 C. The settings on record: protein: recombinant; tags: none (His6-SUMOstar removed by SUMO protease); chain copies: 2; hairpin, locked 3'-fold.
Data set [10] concerns the target T1, StpA-CTD. The data set is described as follows: ITC; 25 C; n=2.33; 50 mM BisTris, 25 mM NaCl, pH 6.4; ITC at 5 and 25 C (40 uM RNA in cell, StpA-CTD 400/800/920 uM injected); NMR with 10% D2O, titration at 25 C. The following applies: protein: recombinant; tags: none (His6-SUMOstar removed by SUMO protease); chain copies: 2; hairpin, locked 3'-fold.

In general, Kd refers to the equilibrium constant for the complex coming apart.

Take CGGAAGGUCCGCCUUCC (structured_RNA) [3'-HP]: the Kd was 16.1 ± 2.6 µM in data set [1] and 11.3 ± 1.4 µM in data set [2].
Regarding GACCGGAAGGUCCGCCUUCC (structured_RNA) [bistable 20mer RNA], the equilibrium dissociation constant (Kd) was 12.3 ± 1.7 µM in data set [3] and 9.4 ± 1.3 µM in data set [4].
Turning to GACCGGAAGGUCCGCCUUCC (structured_RNA, N1-methylguanosine at G6) [G6-m1G], the results for the dissociation constant (Kd) in [5] and in data set [6] were 16.3 ± 0.7 µM and 17.5 ± 1.3 µM, respectively.
GACCGGAAGGUCC (structured_RNA) [5'-HP]: the Kd in data set [7] amounted to 24.7 ± 0.6 µM; in data set [8] it was 13.3 ± 3.7 µM.
On to GACCGGAAGGUCCGCCUUCC (structured_RNA, N6-dimethyladenosine at A2) [A2-DMA], for which the values for the Kd in data set [9] and in data set [10] were 8.31 ± 0.8 µM and 13.6 ± 1.6 µM, respectively.
